{"source": "paper PMC3025356", "about": "“Mechanism of the Ca^2+-Dependent Interaction between S100A4 and Tail Fragments of Nonmuscle Myosin Heavy Chain IIA” (Journal of Molecular Biology, 2011)", "molecules": {"B1": {"name": "M200: His-tagged human NM-MHC IIA residues Q1761-E1960, V1913I substitution (protein, UniProt P35579 1761-1960, looked up, variant V1913I)", "chain": "QINTDLNLERSHAQKNENARQQLERQNKELKVKLQEMEGTVKSKYKASITALEAKIAQLEEQLDNETKERQAACKQVRRTEKKLKDVLLQVDDERRNAEQYKDQADKASTRLKQLKRQLEEAEEEAQRANASRRKLQRELEDATETADAMNREISSLKNKLRRGDLPFVVPRRMARKGAGDGSDEEVDGKADGAEAKPAE", "modifications": "His tag", "notes": "His-tagged human NM-MHC IIA residues Q1761-E1960, V1913I substitution"}}, "key": {"[1]": {"test": "Turbidity of M200 filaments", "type": "physicochemical", "method": "Absorption spectra were recorded using a Cary 50 spectrophotometer (Varian Ltd., Walton on Thames, UK). Protein concentrations were calculated from their absorbance at 280 nm, using molar coefficients of 2980 M^− 1 cm^− 1 (M200 and S100A4) and 1490 M^− 1 cm^− 1 (M111), based on their tyrosine content (two residues per chain and one residue per chain, respectively). Myosin fragments were measured in 0.5 M NaCl buffer, and care was taken to correct for the small contribution from turbidity. Protein concentrations are stated in terms of their monomeric polypeptide chain concentration. Under the conditions used for kinetic analysis, S100A4 is predominantly a dimer,[21,25] and M200 and M111 form stable coiled coils; therefore, the molar protein concentrations are half those given in all three cases. Fluorescence emission spectra were also checked, and those preparations containing a detectable shoulder at 340 nm due to contaminating tryptophan-containing proteins were subjected to further purification. F-M16^N concentrations were based on fluorescein absorbance (ɛ490 = 78,000 M^− 1 cm^− 1). […] Quin-2 concentrations were calculated from ɛ354 = 5000 M^− 1 cm^− 1 in the absence of Ca^2+.[39] Turbidity assays used to monitor M200 filament formation and solubilisation with manual mixing were carried out using a 10-mm pathlength and a 0.1-ml microcuvette (105.250-QS; Hellma, Southend on Sea, UK) at a wavelength of 300 nm. For determination of the free Ca^2+ concentration, Fura-2 fluorescence excitation spectra were measured in the same cuvette using the 2-mm path for excitation to minimise inner filter effects. […]\ny = m2*(1-((m0^m4)/(m0^ m4+m...\nFig. S5. (a) Turbidity of the M200 fragment (5\nM) as a function of [NaCl]. (b) Determination of the critical concentration of M200 in 100 mM NaCl, 10 mM Hepes, 0.1 mM Ca2+ at pH 7.5 and 20 °C. Aliquots of 1 or […]\nl of M200 were added to 1 ml buffer and the turbidity reading determined over a 30 s period. A linear fit to the data obtained above 0.3\nM indicated a critical concentration of 0.1 […]"}, "M200 filamentous bundles": {"system": "M200 filamentous bundles", "test": "Electron microscopy of myosin IIA tail fragments", "set-up": "species or system human", "method": "Fig. 8 Characterisation of myosin IIA coiled-coil tail fragments. Metal-shadowed electron micrographs of (a) M200 and (b) M111 deposited from 0.5 M ammonium acetate. Scale bar represents 50 nm. (c and d) Electron micrographs of a negatively stained M200 tail fragment. Fields of M200 (c) in the absence and (d) in the presence of a 2-fold molar excess of S100A4, respectively. Arrows point to individual strands emerging from images of filamentous bundles. The samples were prepared in 0.1 M sodium acetate buffer, where M200 formed large filamentous aggregates but were solubilised in the presence of S100A4. Scale bar represents 200 nm (see Materials and Methods for details).\nFor negative staining, the stock solution of the M200 tail fragment was diluted with a solution consisting of 0.1 M Na-acetate, 3 mM MgCl2, 0.1 mM CaCl2, 10 mM imidazole, and 5 mM NaH2PO4 (pH 7.0), with or without 14 μM S100A4, to give a final concentration of 7 μM M200. Following dilution, 5 μl of the mixture was applied to a grid with a thin carbon film supported by a holey carbon film, and the grid was negatively stained using 1% uranyl acetate. For metal shadowing, the stock solutions of the M200 and M111 tail fragments were diluted with 0.5 M ammonium acetate solution to give a final concentration of 5 μM protein. This was mixed with an equal volume of glycerol, and the resulting mixture was sprayed onto freshly cleaved mica then rotary shadowed with platinum at an angle of 6°.[46] Grids were examined in a Philips CM120 electron microscope (FEI, Hillsboro, OR) operated at 80 kV. Images were recorded on a 2000 × 2000 F224HD slow-scan CCD camera (TVIPS, Gauting, Germany) at a magnification of 65,000× (0.37 nm pixel^− 1). The lengths of nonoverlapping well-shadowed molecules were measured as described by Burgess et al.[47]"}, "S100A4": {"molecular_target": "T1, S100A4 (Homo sapiens, UniProt P26447)", "T1 construct": "We used full-length S100A4 for this analysis; made in house; host or cells: Escherichia coli BL21(DE3)", "T1 sequence (P26447 whole entry)": "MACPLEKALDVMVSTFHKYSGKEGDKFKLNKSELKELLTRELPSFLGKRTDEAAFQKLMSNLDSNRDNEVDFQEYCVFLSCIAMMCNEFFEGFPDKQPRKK", "test": "Quin-2 fluorescence, Ca^2+ dissociation from S100A4 in the presence of target peptides", "type": "binding", "method": "Ca^2+ dissociation measurements for wild-type S100A4, using Quin-2 as described above, were repeated as a control for the effect of target peptides on this process. On mixing 10 μM S100A4 in the presence of Ca^2+ with 100 μM Quin-2, the observed profile was fitted to a single exponential with kobs = 17 s^− 1 (Fig. 5a; cf. k− 1 in Scheme 1).\nFig. 5 Dissociation of Ca^2+ from S100A4 in the absence and in the presence of target peptides monitored using Quin-2 fluorescence. (a) Mixed with 100 μM Quin-2 was 10 μM S100A4 + 50 μM Ca^2+ (stopped-flow reaction chamber concentrations). A superposed fit to a single exponential yields kobs = 17 s^− 1. […] (d) As in (a), but with 2.5 μM M200 premixed with 5 μM S100A4. A biphasic exponential fit yielded rate constants of 13 s^− 1 (A = 26%) and 0.30 s^− 1 (A = 74%). […] Experiments were carried out in either 20 mM NaCl, 20 mM Tris, 1 mM DTT, and 100 μM Ca^2+ at pH 7.5 and 20 °C (a and b; cf. Malashkevich et al.[17]), or 100 mM NaCl, 10 mM Hepes, and 100 μM Ca^2+ at pH 7.5 and 20 °C (c and d). […] Rate constants were unaffected by the inclusion of 1 mM Mg^2+.\nStopped-flow measurements were carried out using an SX18-MV apparatus (Applied Photophysics Ltd., Leatherhead, UK) with a dead time of 1.5 ms.[40] Records were generally captured on a logarithmic time base. Absorption (turbidity) measurements were usually recorded using a 10-mm pathlength, while fluorescence was recorded with a 2-mm pathlength for excitation and emission. The stated concentrations of components refer to the reaction chamber after mixing, unless otherwise indicated. Tyrosine fluorescence was excited at 280 nm, and the emission was collected through a UG11 bandpass filter plus a 305-nm longpass filter.[18] Fluorescein fluorescence was excited at 480 nm, and the emission was detected through a 515-nm longpass filter. Quin-2 fluorescence was measured by excitation at 336 nm, and emission was collected with a 455-nm longpass filter. For simultaneous recording of light scatter, a second channel was monitored through a UG11 filter. Rate constants were obtained by fitting to single-exponential or double-exponential functions using Kaleidagraph (Synergy Software) or Applied Photophysics Pro-Data software. Modeling of kinetic schemes was performed using Berkeley Madonna software."}, "[2]": {"details": "2.5 μM M200 premixed with 5 μM S100A4"}}, "note": "Several values for one entry are separate records, joined by “and”; a condition that tells them apart may be missing. Equal values may be shown once."}
{"molecule": "B1", "values": [{"measurement": "NaCl midpoint of turbidity transition", "setting": "[1]; 5 μM M200", "value": "about 120 mM NaCl"}, {"measurement": "intercept (critical concentration) from 2.5-5 μM data only", "setting": "[1]; 100 mM NaCl", "value": 0.49, "unit": "µM"}, {"measurement": "critical concentration", "setting": "[1]; 100 mM NaCl, 10 mM Hepes, 0.1 mM Ca^2+, pH 7.5, 20 °C", "value": "~0.1 ± 0.04 µM and < 0.2 µM"}, {"measurement": "critical concentration (supplement)", "setting": "[1]; 100 mM NaCl, 10 mM Hepes, 0.1 mM Ca^2+, pH 7.5, 20 °C, fit above 0.3 μM", "value": 0.1, "unit": "µM"}, {"measurement": "filamentous bundle width", "setting": "M200 filamentous bundles; 0.1 M Na-acetate", "value": "~100", "unit": "nm"}, {"measurement": "individual strand width", "setting": "M200 filamentous bundles; 0.1 M Na-acetate", "value": "about 10 nm"}, {"measurement": "mean length of coiled coil", "setting": "M200 filamentous bundles; metal shadowed, 0.5 M ammonium acetate, mean ± SD, n = 132", "value": "26.4 ± 2.03", "unit": "nm"}, {"measurement": "fast-phase amplitude", "setting": "S100A4; [2]", "value": 26, "unit": "%"}, {"measurement": "slow-phase amplitude", "setting": "S100A4; [2]", "value": 74, "unit": "%"}, {"measurement": "slow-phase rate constant", "setting": "S100A4; 2.5 μM M200 premixed with 5 μM S100A4, 100 mM NaCl", "value": 0.30, "unit": "s^− 1"}, {"measurement": "fast-phase rate constant", "setting": "S100A4; 2.5 μM M200 premixed with 5 μM S100A4, 100 mM NaCl, 10 mM Hepes, 100 μM Ca^2+, pH 7.5, 20 °C", "value": 13, "unit": "s^− 1"}, {"measurement": "slower release of Ca^2+", "setting": "S100A4; in presence of coiled-coil fragments", "value": "0.3–0.5 s^− 1"}, {"measurement": "Ca^2+ dissociation rate constant from complex (k− 3), comparison", "setting": "S100A4; peptide–S100A4–Ca^2+ complex", "value": 0.3, "unit": "s^− 1"}]}
